The first experiment concerns the target T1, Yfr024 SH3 (LSB3_YEAST), P43603.
T1 chain: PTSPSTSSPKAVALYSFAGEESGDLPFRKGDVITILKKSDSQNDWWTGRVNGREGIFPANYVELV
As to the kind of experiment: SPOT array.
The molecule QVYEKTIPLFPPEI [YDR416W 606-619] returned a normalised SPOT signal, Boehringer light units (BLU); mean over the file's lines of this peptide of 9.3.
The molecule RAGNREPPSTPSTL [YBR079C 874-887] yielded a normalised SPOT signal, Boehringer light units (BLU); mean over the file's lines of this peptide of 212.
Same read-out and setting: the same measure for REGPKSSPRGPLSP [YPR107C 40-53]: 184; for RDDVKRTPFIPESV [YPL093W 369-382]: 92.
With REYIKSLPMYPAAP [YBL016W 257-270], the normalised SPOT signal, Boehringer light units (BLU); mean over the file's lines of this peptide worked out at 102.
Regarding QWSKRIMPYIPGPV [YBR200W 345-358], the normalised SPOT signal, Boehringer light units (BLU); mean over the file's lines of this peptide came out at 1820.

The next experiment deals with T2, Rvs167 SH3 (RV167_YEAST), P39743.
T2 chain: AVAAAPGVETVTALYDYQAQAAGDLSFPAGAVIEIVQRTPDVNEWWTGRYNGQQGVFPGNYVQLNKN
As to the kind of experiment: SPOT array.
The molecule QVYEKTIPLFPPEI [YDR416W 606-619] displayed a normalised SPOT signal, Boehringer light units (BLU); mean over the file's lines of this peptide of 22.8.
RAGNREPPSTPSTL [YBR079C 874-887]: the normalised SPOT signal, Boehringer light units (BLU); mean over the file's lines of this peptide was determined as 77.6.
Regarding REGPKSSPRGPLSP [YPR107C 40-53], the normalised SPOT signal, Boehringer light units (BLU); mean over the file's lines of this peptide was 30.2.
Still for that read-out and setting: the value for RDDVKRTPFIPESV [YPL093W 369-382] was 86.7; that for REYIKSLPMYPAAP [YBL016W 257-270] was 101; that for QWSKRIMPYIPGPV [YBR200W 345-358] was 140.

The target of a further experiment is T3, Boi2 SH3 (BOI2_YEAST), P39969.
T3 chain: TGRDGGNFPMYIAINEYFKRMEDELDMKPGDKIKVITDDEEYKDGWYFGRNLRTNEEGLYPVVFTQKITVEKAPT
As to the kind of experiment: SPOT array.
With QVYEKTIPLFPPEI [YDR416W 606-619], the normalised SPOT signal, Boehringer light units (BLU); mean over the file's lines of this peptide is 3.6.
As to RAGNREPPSTPSTL [YBR079C 874-887], the normalised SPOT signal, Boehringer light units (BLU); mean over the file's lines of this peptide came out at 18.7.
On the same count and under the same terms, the value for REGPKSSPRGPLSP [YPR107C 40-53] was 11.9.
Consider RDDVKRTPFIPESV [YPL093W 369-382], for which the normalised SPOT signal, Boehringer light units (BLU); mean over the file's lines of this peptide was determined as 0.
REYIKSLPMYPAAP [YBL016W 257-270] showed a normalised SPOT signal, Boehringer light units (BLU); mean over the file's lines of this peptide of 83.3.
On the same count and under the same terms, the same measure for QWSKRIMPYIPGPV [YBR200W 345-358]: 145.

In another experiment the target is T4, Myo5 SH3 (MYO5_YEAST), Q04439.
T4 chain: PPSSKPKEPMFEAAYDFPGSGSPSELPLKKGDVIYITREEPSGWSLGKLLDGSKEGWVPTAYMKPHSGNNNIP
Briefly: SPOT array.
As to QVYEKTIPLFPPEI [YDR416W 606-619], the normalised SPOT signal, Boehringer light units (BLU); mean over the file's lines of this peptide was 153.
The molecule RAGNREPPSTPSTL [YBR079C 874-887] displayed a normalised SPOT signal, Boehringer light units (BLU); mean over the file's lines of this peptide of 274.
For the molecule REGPKSSPRGPLSP [YPR107C 40-53], the normalised SPOT signal, Boehringer light units (BLU); mean over the file's lines of this peptide amounted to 188.
With RDDVKRTPFIPESV [YPL093W 369-382], the normalised SPOT signal, Boehringer light units (BLU); mean over the file's lines of this peptide was determined as 171.
In the case of REYIKSLPMYPAAP [YBL016W 257-270], the normalised SPOT signal, Boehringer light units (BLU); mean over the file's lines of this peptide worked out at 70.4.
Same read-out and setting: the same measure for QWSKRIMPYIPGPV [YBR200W 345-358]: 296.

A further experiment deals with T5, Yhr016c SH3 (YSC84_YEAST), P32793.
T5 chain: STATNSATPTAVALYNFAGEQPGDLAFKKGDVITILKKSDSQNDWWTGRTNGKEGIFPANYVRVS
Briefly: SPOT array.
On to QVYEKTIPLFPPEI [YDR416W 606-619], for which the normalised SPOT signal, Boehringer light units (BLU); mean over the file's lines of this peptide turned out to be 5.4.
The same measure, in the same setting: the same measure for RAGNREPPSTPSTL [YBR079C 874-887]: 31.9.
In turn, REGPKSSPRGPLSP [YPR107C 40-53] returned a normalised SPOT signal, Boehringer light units (BLU); mean over the file's lines of this peptide of 36.3.
Turning to RDDVKRTPFIPESV [YPL093W 369-382], the normalised SPOT signal, Boehringer light units (BLU); mean over the file's lines of this peptide came out at 0.
For REYIKSLPMYPAAP [YBL016W 257-270], the normalised SPOT signal, Boehringer light units (BLU); mean over the file's lines of this peptide came out at 48.
In turn, QWSKRIMPYIPGPV [YBR200W 345-358] registered a normalised SPOT signal, Boehringer light units (BLU); mean over the file's lines of this peptide of 109.

The next experiment deals with Sho1 SH3 (SHO1_YEAST), P40073. Briefly: SPOT array.
Sho1 SH3 (SHO1_YEAST), P40073, sequence (P40073 295-366): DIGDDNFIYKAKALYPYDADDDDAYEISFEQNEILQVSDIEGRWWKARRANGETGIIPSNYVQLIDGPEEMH
In turn, QVYEKTIPLFPPEI [YDR416W 606-619] had a normalised SPOT signal, Boehringer light units (BLU); mean over the file's lines of this peptide of 31.6.
Consider RAGNREPPSTPSTL [YBR079C 874-887], for which the normalised SPOT signal, Boehringer light units (BLU); mean over the file's lines of this peptide was determined as 135.
Consider REGPKSSPRGPLSP [YPR107C 40-53], for which the normalised SPOT signal, Boehringer light units (BLU); mean over the file's lines of this peptide was determined as 27.8.
RDDVKRTPFIPESV [YPL093W 369-382] returned a normalised SPOT signal, Boehringer light units (BLU); mean over the file's lines of this peptide of 45.2.
Take REYIKSLPMYPAAP [YBL016W 257-270]: the normalised SPOT signal, Boehringer light units (BLU); mean over the file's lines of this peptide is 5160.
Still for that read-out and setting: the value for QWSKRIMPYIPGPV [YBR200W 345-358] was 230.

The next experiment addresses T6, Boi1 SH3 (BOI1_YEAST), P38041.
T6 chain: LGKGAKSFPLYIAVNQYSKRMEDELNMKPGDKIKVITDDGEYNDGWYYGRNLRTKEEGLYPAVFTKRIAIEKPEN
As to the kind of experiment: SPOT array.
In the case of QVYEKTIPLFPPEI [YDR416W 606-619], the normalised SPOT signal, Boehringer light units (BLU); mean over the file's lines of this peptide was 11.
As to RAGNREPPSTPSTL [YBR079C 874-887], the normalised SPOT signal, Boehringer light units (BLU); mean over the file's lines of this peptide worked out at 705.
Consider REGPKSSPRGPLSP [YPR107C 40-53], for which the normalised SPOT signal, Boehringer light units (BLU); mean over the file's lines of this peptide worked out at 3920.
With RDDVKRTPFIPESV [YPL093W 369-382], the normalised SPOT signal, Boehringer light units (BLU); mean over the file's lines of this peptide is 0.
Same read-out and setting: the value for REYIKSLPMYPAAP [YBL016W 257-270] was 150; that for QWSKRIMPYIPGPV [YBR200W 345-358] was 123.
